Columns and labels:
Format in all cases: physicochemical
[1] = Sedimentation equilibrium ultracentrifugation (aggregation state); details: concentration range approximately 10 μM-40 μM
Description: Ultracentrifugation. Sedimentation equilibrium analysis of the wild type proteins GCN4-p1 and A1 and the corresponding artificial proteins containing the non-natural amino acids was performed using a Beckman XLI analytical ultracentrifuge, recording interference data and radial absorbance at 236 and 280 nm at the same time. […] The samples were centrifuged at 35000, 40000, 45000 rpm, until equilibrium was reached. Partial specific volumes were calculated by the residue-weighted average method of Cohn and Edsall (Harding, S. E.; Rowe, A. J.; Harton, J. C. Analytic Ultracentrifugation in Biochemistry and Polymer Science; The Royal Society for Chemistry: Cambridge, 1992). Solution densities were estimated using solute concentration-dependent density tables in the CRC Handbook of Chemistry and Physics. The data were fit as single species to provide an estimate of the aggregation states. Curve fitting of analytical ultracentrifuge data was done using Igor Pro (Wavemetrics Inc., Oswego WS) with procedures adapted from Brooks et al. (Brooks, I. S.; Soneson, K. K.; Hensley, P. Biophys. J. 1993, 64, 244) by Dr. James D. Lear.
Secondary structures of wild type polypeptide Leu-GCN4-p1 and the corresponding artificial polypeptide Tfl-GCN4-p1 were analyzed by circular dichroism (CD). […]

[2] = CD thermal unfolding of GCN4-p1 coiled-coil peptides
Description: Circular Dichroism (CD) Analysis. CD spectra were recorded on an Aviv 62DS spectropolarimeter (Lakewood, N.J.) in PBS buffer, pH 7.4. All peptide concentrations were determined by amino acid analysis of a stock solution (5 mg/ml). Experiments were performed in a rectangular cell with pathlength of 1 cm for low concentration samples and pathlength of 1 mm for high concentration samples. Spectra were scanned from 250 nm to 200 nm with data taken every 1 nm. The temperature of the solution was maintained by a thermostatically controlled cuvette holder (HP model 89101A). Temperature scans were performed from 0° C. to 100° C. in 1° C. steps. Three scans were performed on a single sample and averaged. Each data point was collected after 30 seconds of thermal equilibration at the desired temperature. Urea titration scans were performed manually starting with the 8 M concentrated sample followed by serial dilution to the desired urea concentration. At each concentration, the sample was allowed to equilibrate for 5 min before recording the CD signal.
The analysis of CD thermal melting data was performed according to a previously described procedure using a two-state model (Schneider, J. P.; Lear, J. D.; DeGrado, W. F. J. Am. Chem. Soc. 1997, 119, 5742-5743). Temperature-dependent ellipticity data for each protein at different concentrations were fitted globally using a non-linear least-squares fitting procedure supplied with the Origin 6.0 software. For wild-type A1, the concentrations used for curve fitting were 10 and 100 μM, while 2 and 100 μm were used to fit data for the 92% fluorinated A1. The thermodynamic quantities Tm, ΔHm, ΔCp and Kd were parameters of the fitting procedure and are reported in the 1 M standard state. The free energy of folding at any temperature is given by equation 1. ΔG°=ΔHm(1−T/Tm)−ΔCp((Tm−T)+T1n(T/Tm) (1)
The thermal stabilities of the coiled-coil dimers of Leu-GCN4-p1 and Tfl-GCN4-p1 were examined by CD spectroscopy (FIG. 2B). A significant increase in the thermal stability of Tfl-GCN4-p1 as compared to Leu-GCN4-p1 is reflected in an elevation of the thermal denaturation temperature from 48° C. to 61° C. The 13° C. increase in Tm is remarkable in view of the fact that no increase in the thermal stability of GCN4-p1 has been reported based solely on substitution of the leucine residues at the d-positions. […] As expected for a monomer-dimer equilibrium, the denaturation curves depend on the peptide concentrations, and their midpoints shift to higher temperature as the concentrations of peptides are increased (FIG. 2C). The thermodynamic changes associated with the transition (folded dimer to unfolded monomers) is calculated from the melting curves by fitting the data to a monomer-dimer equilibrium (J. P. Schneider, J. D. Lear and W. F. DeGrado, J. Am. Chem. Soc. 119, 5742, 1997). Global analysis of the thermal unfolding curves at two different concentrations, approximately 85 μM and 3 μM, gave a calculated ΔH° of 60.2 kcal mol^−1, Tm of 385.4 K and ΔCp of 530 cal mol^−1 K^−1 for Tfl-GCN4-p1 (1 M standard state); the corresponding values for Leu-GCN4-p1 are 70.3 kcal mol^−1, 365.6 K and 740 cal mol^−1 K^−1 respectively.

[3] = Guanidine hydrochloride (GuHCl) titration monitored by CD at 222 nm; details: at each temperature examined; 30 μM peptide
Description: The difference in the ability to these molecules to resist denaturation is examined at 30° C. (open symbols) and 50° C. (closed symbols). The ellipticity is monitored at 222 nm and with a peptide concentration of 30 μM. Insert: GuHCl titration midpoint concentration, as defined by the concentration of GuHCl that is needed to denature 50% of the peptides, are plotted as a function of temperature, as described in Examples 5.

[4] = global analysis of thermal unfolding curves, 1 M standard state

Tfl-GCN4-p1: fluorinated GCN4-p1 leucine zipper peptide with trifluoroleucine at the four d-positions
fraction dimeric [1]: approximately 85% | increase in Tm compared to Leu-GCN4-p1 ([2]; CD spectroscopy): 13 °C | thermal denaturation temperature (Tm) ([2]; CD spectroscopy, coiled-coil dimers): 61 °C | ΔH° ([2]; global analysis of thermal unfolding curves at approximately 85 μM and 3 μM, 1 M standard state): 60.2 kcal/mol | Tm [2, 4]: 112.2 °C | ΔCp [2, 4]: 530 cal mol^−1 K^−1 | concentration of GuHCl needed to unfold 50% of the peptide, versus wild-type peptide [3]: higher

From patent US7449443B2, “Method for stabilization of proteins using non-natural amino acids” (California Institute of Technology, priority 2000, dated 2008)
